The target in assay [1] is T1, FcRn of neonatal mouse intestine (mouse) (UniProt Q61559).
T1 sequence (looked up): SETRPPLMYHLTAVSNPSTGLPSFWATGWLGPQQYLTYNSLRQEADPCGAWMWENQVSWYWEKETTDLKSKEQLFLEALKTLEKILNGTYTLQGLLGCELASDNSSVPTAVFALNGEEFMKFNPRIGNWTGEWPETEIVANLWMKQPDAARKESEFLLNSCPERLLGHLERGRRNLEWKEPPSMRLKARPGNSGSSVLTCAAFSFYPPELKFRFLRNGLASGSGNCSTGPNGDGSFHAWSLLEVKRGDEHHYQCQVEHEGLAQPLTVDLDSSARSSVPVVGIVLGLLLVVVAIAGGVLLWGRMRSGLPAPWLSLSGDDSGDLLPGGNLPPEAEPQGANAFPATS
T1 sequence (b2m, looked up): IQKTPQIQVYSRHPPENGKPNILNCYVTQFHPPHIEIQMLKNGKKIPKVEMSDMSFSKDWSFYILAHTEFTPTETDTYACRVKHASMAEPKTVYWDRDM
Briefly: cell-based or functional assay.

Assay [2] addresses recombinant soluble mouse FcRn (mouse) (UniProt Q61559). Briefly: SPR (BIAcore 2000), FcRn coupled to CM5 chip, Fc-hinge 100-300 nM in flow, pH 6.0. (Surface plasmon resonance follows binding to a sensor surface in real time, without labels.)
Assay [3] has the same target. Put plainly: inhibition of 125I-sFcRn binding to murine IgG1-Sepharose; molar ratio of inhibitor/FcRn given as 1/500.
The target is the same in assay [4]. Briefly: inhibition of 125I-sFcRn binding to murine IgG1-Sepharose; molar ratio of inhibitor/FcRn given as 1/1000.
Assay [5] concerns the target Staphylococcal protein A (Staphylococcal) (UniProt P38507). Briefly: direct binding of 125I-Fc-hinge fragments to SpA-agarose, pH 7.5.
The target of assay [6] is complete murine IgG1 molecule (mouse). Put plainly: 125I-sFcRn on mIgG1-Sepharose, incubation at pH 6.0 (913,948 cpm added).
Assay [7] shares this target. Briefly: 125I-sFcRn on mIgG1-Sepharose, incubation at pH 6.0 (937,685 cpm added).
Assay [8] has the same target. Put plainly: 125I-sFcRn on mIgG1-Sepharose, incubation at pH 7.5 (931,302 cpm added).
For assay [9] the target is unchanged. Briefly: 125I-sFcRn on mIgG1-Sepharose, incubation at pH 7.5 (943,936 cpm added).
Assay [10] shares this target. Briefly: 125I-sFcRn on mIgG1-Sepharose, incubation at pH 7.5 (958,958 cpm added).
The target is the same in assay [11]. Briefly: 125I-sFcRn on mIgG1-Sepharose, incubation at pH 6.0 in presence of 500 ug free mIgG1 (937,985 cpm added).

In turn, “Fc-hybrid (heterodimer of WT Fc-hinge and HQ-310/HN-433 mutant)” yielded an Inhibition of transmission (%) of radiolabeled mIgG1 across the intestine of neonatal mice in assay [1] of 21.5%.
In assay [1], HN-433 mutant Fc-hinge fragment yielded an Inhibition of transmission (%) of radiolabeled mIgG1 across the intestine of neonatal mice of 44.4%.
The same measure, in the same setting: then “Fc fragment of murine IgG1 produced by papain digestion (from UniProt P01868 98-324)”, with 62.5%; and “bovine serum albumin (from UniProt P02769 25-607)”, with 8.9%.
For the substance “wild type (WT) Fc-hinge fragment derived from murine IgG1 (from UniProt P01868 98-324)”, in [2], the dissociation constant (Kd) is 7.44 nM, the dissociation rate constant (koff) stood at 0.00461 s⁻¹ and the association rate constant (kon) is 620000 M⁻¹ s⁻¹. Moreover, the % inhibition in assay [3] was found to be 18.4%. The % inhibition in assay [4] was 34.1%.
For H310A and H435A, the SpA binding, % of WT Fc-hinge in [5] is 9 to 12 % of WT.
HQ-310 mutant Fc-hinge fragment gave an Inhibition of transmission (%) of radiolabeled mIgG1 across the intestine of neonatal mice in [1] of 8.9%. Further, the figures for the % inhibition in assay [3] and in assay [4] were 1.6% and 6.1%, respectively.
Consider “HQ-310/HN-433 mutant Fc-hinge fragment (from UniProt P01868 98-324)”, for which the % inhibition in assay [3] was 0.2%; in [4], 4%.
On to “recombinant soluble mouse FcRn (from UniProt Q61559 22-290; P01887 21-119) (receptor)”, for which the bound radioactivity in assay [6] came out at 271000 cpm; in [7] it was 228000 cpm; in [8], 19600 cpm; in assay [9], 11600 cpm; in assay [10], 12300 cpm; in assay [11], 70700 cpm. The bound radioactivity after pH 7.5 wash in assay [6] came out at 42600 cpm; in assay [7], 42700 cpm; in assay [8] it was 16800 cpm; in assay [9], 10300 cpm; in assay [10] it was 9470 cpm; in assay [11], 26500 cpm.
For the substance “I253A mutant Fc-hinge fragment (from UniProt P01868 98-324)”, the values for the % inhibition in assay [3] and in assay [4] were 2.3% and 6.5%, respectively.

Broadly, the Kd is the concentration at which binding is half-saturated. In general, koff refers to the rate constant with which the complex falls apart. Broadly, the kon is a measure of how fast the partners come together. Broadly, the % inhibition is the percentage by which the read-out fell short of the control.

The values are drawn from patent US20020098193A1.
